The values below are quoted from earlier work in article PMC7883480.

For one data set, the target named is CXCR4 (Homo sapiens) (UniProt P61073). The data set can be described thus: radioligand competitive displacement.
The target of data set [1] is GIP receptor (Homo sapiens) (UniProt P48546). The data set can be described thus: competitive binding assay.
In data set [2] the target is GLP-1 receptor (Homo sapiens) (UniProt P43220). The data set can be described thus: SPA binding assay.

In the case of CXCL12 1-68 (from UniProt P48061), the Kd (commonly a measure of binding affinity in units of concentration) in the data set with CXCR4 (Homo sapiens) is 1.44 nM.
As to CXCL12 3-68 (from UniProt P48061), the Kd with CXCR4 (Homo sapiens) is 464 nM.
Turning to GIP 1-30 (from UniProt P09681), the Ki (usually a dissociation constant, usually derived from enzyme kinetics or from competition with a known ligand) in data set [1] was 0.89 nM.
For GIP 3-30 (from UniProt P09681), the Ki in data set [1] was 2.3 nM.
GLP-1 7-36 (from UniProt P01275): in data set [2], the inhibition constant Ki was 0.102 nM.
In the case of GLP-1 9-36 (from UniProt P01275), the Ki in data set [2] was 156 nM.
